Measured values from patent US11633499B2, “Anti-TMEM-180 antibody, anticancer drug and cancer testing method” (NATIONAL CANCER CENTER JAPAN, priority 2016, dated 2023).

Columns and labels:
[1] = test system: cell lines derived from cancers (ATCC and JCRB); experiment: Reactivity of antibodies to cancer-derived cell lines by FACS (Table 23); type: binding; details: Cancer Type: Colon
Experimental: Cancer cells targeted for measurement were cultured in medium and then added to a V-bottom 96-well plate (Corning Incorporated) to a concentration of 1×10^5 cells/well. The plate was centrifuged for 3 minutes at 440×g and 4° C. followed by removing the supernatant, adding antibody-producing hybridoma culture supernatant or antibody solution to the cell pellet at 50 μL/well and suspending therein. After allowing to react for 45 minutes on ice, the plate was washed three times with a mixture of 0.1% BSA, 2 mM EDTA and PBS at 200 μL/well. The supernatant was removed and secondary antibody was added to the cell pellet at 50 μL/well followed by suspending the cells therein. ALEXAFLUOR 647@ (fluorescent compound) goat anti-rat IgG (H-L) (Life Technologies Corporation) was used for the secondary antibody after diluting 400-fold with a mixture of 0.1% BSA, 2 mM EDTA and PBS. After allowing to react for 45 minutes on ice, the plate was washed three times with a mixture of 0.1% BSA, 2 mM EDTA and PBS at 200 μL/well. After removing the supernatant, 50 ng/mL of propidium iodide, 0.1% BSA, 2 mM EDTA and PBS were added to the cell pellet at 250 µL/well followed by suspending therein. The cells stained in this manner were measured using a flow cytometer such as the Guava easyCyte 8HT (Merck Millipore Corporation) followed by analysis of the resulting data using FlowJO (Tomy Digital Biology Co., Ltd.). FACS analysis was carried out using colon cancer, brain tumor and hematologic cancer.
Cancer-detection rates were tested using monoclonal antibodies (the 669 antibody, 1052 antibody, 1105 antibody, and 1361 antibody).
In this Example, the reactivity of the antibodies to the cell lines derived from cancers which were obtained from ATCC and JCRB was analyzed by FACS.

[2] = test system: cell lines derived from cancers (ATCC and JCRB); experiment: as above; type: binding

B1: clone 1052: rat IgM anti-TMEM-180 monoclonal antibody; variable regions SEQ ID NOs: 94 and 95 (antibody, V domains shown)
VH: MAVLVLLLCLVTFPSCVLSQVQLKESGPGLMQPSETLSLTCTVSGFSLTSNGVGWVRQPLGKGLVWMGTIWTGGGTNYNSGVQSRLSISRDTSKSQVFLKMNSLQPEDTGTYYCAREYMGFDYWGQGVMVTVSS
VL: MELISQVFVFLLLWLSGVYGNTVMTQSPTSMFTSVGDRVTMSCKASQNVGINVGWYQQKTGQSPKRLIYWASNRDTGVPDRFTGSGSGTDFTLTISNMQAEDPAIYYCLQHNSYPRTFGGGTKLELK
Detection Sensitivity of Cancers, P/N [1]: (3/10) | Detection Sensitivity of Cancers, Percentage (%) [1]: 30% | Detection Sensitivity of Cancers, P/N ([2]; Cancer Type: Bladder): (2/4) | Detection Sensitivity of Cancers, Percentage (%) ([2]; Cancer Type: Bladder): 50% | Detection Sensitivity of Cancers, P/N ([2]; Cancer Type: Brest): (3/6) | Detection Sensitivity of Cancers, Percentage (%) ([2]; Cancer Type: Brest): 50% | Detection Sensitivity of Cancers, P/N ([2]; Cancer Type: Gastric): (2/8) | Detection Sensitivity of Cancers, Percentage (%) ([2]; Cancer Type: Gastric): 25% | Detection Sensitivity of Cancers, P/N ([2]; Cancer Type: Pancreas): (4/9) | Detection Sensitivity of Cancers, Percentage (%) ([2]; Cancer Type: Pancreas): 44%

B2: clone 1105: rat IgM anti-TMEM-180 monoclonal antibody; variable regions SEQ ID NOs: 102 and 103 (antibody, V domains shown)
VH: MAVLVLLLCLVTFPSCVLSQVQLKESGPGLMQPSETLSLTCTVSGFSLTSNGVGWVRQPLGKGLVWMGTIWSGGGTNYNSAVQSRLSITRDTSKSQVFLKMNSLQPEDTGTYYCAREEKGFAYWGQGTLVTVSS
VL: MELISQVFVFLLLWLSGVYGNIVMTQSPTSMSTSVGDRVTMSCKASQNVGINVGWYQQKTGQSPKRLIYWASNRDTGVPDRFTGSGSGTDFTLTISNMQAEDPAIYYCLQHNSYPRAFGGGTKLELR
Detection Sensitivity of Cancers, P/N [1]: (3/10) | Detection Sensitivity of Cancers, Percentage (%) [1]: 30% | Detection Sensitivity of Cancers, Percentage (%) ([2]; Cancer Type: Bladder): 50% | Detection Sensitivity of Cancers, P/N ([2]; Cancer Type: Brest): (3/6) | Detection Sensitivity of Cancers, Percentage (%) ([2]; Cancer Type: Brest): 50% | Detection Sensitivity of Cancers, P/N ([2]; Cancer Type: Gastric): (2/8) | Detection Sensitivity of Cancers, Percentage (%) ([2]; Cancer Type: Gastric): 25% | Detection Sensitivity of Cancers, P/N ([2]; Cancer Type: Pancreas): (4/9) | Detection Sensitivity of Cancers, Percentage (%) ([2]; Cancer Type: Pancreas): 44%
